From the supplement of paper PMC9170038

Test system: MS2 coat protein
Experiment: apparent KD of MS2 coat protein; higher = weaker reporter binding
Settings: Eterna round: R107; input ligand: none
Description: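 RNA-MaP round R107: designed RNA switches with theophylline, tryptophan, arginine or FMN aptamers are transcribed on-chip within common flanks. They are titrated with SNAP-549-labelled MS2 coat protein in RNA-MaP buffer (100 mM Tris pH 7.5, 80 mM KCl, 4 mM MgCl2), without ligand or with the indicated ligand. Median apparent KD per design.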

Point of comparison: “UUUUUCAUAGGUUAUAGUUUAGAAACUGAAGGAGCGUGGUAAUACACAGGUAGGUCGCAGAUUUUACAUGAGGAUCACCCAUGUU [JR_ExcArginiA_Sub014]”, “apparent KD of MS2 coat protein” value 23.2 nM. Against it:
- GGUACAUGAGGAUCACCCAUGUAUGGGUACCGAGGACCGGUACGGCCGCCACUCGCAGGACAUGAGGAUCACCCAUGUGCAACCG [SSTA DOUBLE!!! :-D #11] — 6.1-fold higher, 142 nM
- ACAUGAGGAUCACCCAUGUGAAGGCACGAUACCAGCUGAUCCCGUGGCCCUUGGCAGCGUCCGGUGUGGUCCGGCGGGUGGGACG [bbvmullin] — within 1.5-fold, 29 nM
- CGGCCCUCACCUGAGGAUCACCCAGGUGAUACCAGCCUGGAAACAGGCCCUUGGCAGCACCAGGUCAUCAAAGAUGACCAAGCCG [TheoAX 23 #SwitchBubble] — 2.2-fold lower, 10.5 nM
- GACCGAUUAUAGCGCGAUUGUCUUGUGGAAGGAGCGCAGAGGGCUGCAGGUAGGUCGCCACAUGAGGAUCACCCAUGUCAGGAUA [Ananvediri] — within 1.5-fold, 20.2 nM
- AACAACAAGGGAAGGAGCGCGAAUAAUAAACAUGAGGAUCACCCAUGUAUCAUGGGCUUAACGCAGGUAGGUCGCCCACAAACAA [Exclusion Arginine B GF1] — 1.6-fold higher, 37.9 nM
- GAUUACAUGAGGAUCACCCAUGUAACUGAAGGAGCGGUGAUAAAGCCAGGUAGGUCGCAGAACGACAUGUGGUUCAUCCAUGUAA [#16 Exclusion - Arginine A] — 1.6-fold higher, 36.8 nM
- GAUAUAACAAAAGUUGUAUCAGUGGGUGAACGAGGACCGGUACGGCCGCCACUCGGACAUGAGGAUCACCCAUGUCCAUGUGAAA [AstrosExyTryA#18] — 1.6-fold lower, 14.7 nM
- UGUAUGUGAUUUGAUACCAGACCAGCUGGUGUUAUAUGAGGAUCACCCAUAUAGGUUUGGGUCCCUUGGCAGCAAAUCGCAUACU [SS Theo B #24 Ms14] — within 1.5-fold, 28.6 nM
- UUGUUGUUUGGAAGGAGCGUGUAAGAUUAAGAACAUGAGGAUCACCCAUGUUUUAAGGGAACACAGGUAGGUCGCCGGGUGGUGG [11.R] — 1.7-fold lower, 13.9 nM
- GCCUAGCAUCGAAGGAGCGGGCAUUACGCGCGAAAGCGCGAUACUUGAGGAACACCCAAGUCCCAGGUAGGUCGCGAUGCUAGGC [SSAB Alternative Aptamer #3 NP+V+V2] — 3.1-fold higher, 70.9 nM
- UUCAGCUAGUCGGCCGCCACUACCUGAGGAUCACCCUGGUAAUCCUAACACUGCUUCGGCAGUGGUAGGACCGGGACUAGCUGAG — within 1.5-fold, 28.2 nM
- CUAUAAUGAAAACAUUAUAGAGUGGGUGAACGAGGACCGGUACGGCCGCCACUCGGACAUGAGGAUCACCCAUGUCCAUGUGAAA [AstrosExyTryA#24] — within 1.5-fold, 15.6 nM
- UAAUGUGAGAGAAGGAGCGGAAGUCUCGUUACAACAUGAGGAUCACCCAUGUAACGUACAGUCCAGGUAGGUCGCUCUCGGGCGC [pqacmullin] — 1.6-fold lower, 14.8 nM
- CAAAAUUACGGAAGGAGCGCGGGUAGGCGGGUUGGAUCACAUGAGGAUCACCCAUGUAAAUCGCAGGUAGGUCGCCGUAAACGCG [Eslagele] — within 1.5-fold, 28.8 nM
- ACAUGAGGAUCACCCAUGUAUCAACGGGAAGGAGCGCCAAACAAGGCAGGUAGGUCGCCCACAUGAGGAUCACCCAUGUGUUGGU [Exclusion Arginine A GF 29] — within 1.5-fold, 21.4 nM

Same assay, conditions: Eterna round: R107; input ligand: theophylline 20 uM

Point of comparison: “UUGUUGUUUGGAAGGAGCGUGUAAGAUUAAGAACAUGAGGAUCACCCAUGUUUUAAGGGAACACAGGUAGGUCGCCGGGUGGUGG [11.R]”, “apparent KD of MS2 coat protein” value 19 nM. Against it:
- UAGUUGCUGACGGCCGCCACUAGAACAUGAGGAUCACCCAUGUAUUCUAGUGGACAUGGGUGGACUAGGACCGGGUCAGCAACAU [(Trp1)-(Ms2)-(T)'-(M)'-(Trp2)_Design9] — 2-fold higher, 37.8 nM
- AAUAAUAAGGCGGCCGCCACUACACAUGAGGAUCACCCAUGUCUCGCGGGCUUGCGUUGGGAAAGUAGGACCGGGCCAAUAAUAA [Exclusion - Tryptophan B (Freestyle 9)] — within 1.5-fold, 26 nM
- GGUACAUGAGGAUCACCCAUGUAUGGGUACCGAGGACCGGUACGGCCGCCACUCGCAGGACAUGAGGAUCACCCAUGUGCAACCG [SSTA DOUBLE!!! :-D #11] — 7.6-fold higher, 144 nM
- UUUUUCAUAGGUUAUAGUUUAGAAACUGAAGGAGCGUGGUAAUACACAGGUAGGUCGCAGAUUUUACAUGAGGAUCACCCAUGUU [JR_ExcArginiA_Sub014] — within 1.5-fold, 27.3 nM
- ACAUGAGGAUCACCCAUGUGAAGGCACGAUACCAGCUGAUCCCGUGGCCCUUGGCAGCGUCCGGUGUGGUCCGGCGGGUGGGACG [bbvmullin] — 4-fold higher, 75.4 nM
- CGGCCCUCACCUGAGGAUCACCCAGGUGAUACCAGCCUGGAAACAGGCCCUUGGCAGCACCAGGUCAUCAAAGAUGACCAAGCCG [TheoAX 23 #SwitchBubble] — within 1.5-fold, 15.2 nM
- GACCGAUUAUAGCGCGAUUGUCUUGUGGAAGGAGCGCAGAGGGCUGCAGGUAGGUCGCCACAUGAGGAUCACCCAUGUCAGGAUA [Ananvediri] — 2.8-fold higher, 53.4 nM
- AACAACAAGGGAAGGAGCGCGAAUAAUAAACAUGAGGAUCACCCAUGUAUCAUGGGCUUAACGCAGGUAGGUCGCCCACAAACAA [Exclusion Arginine B GF1] — 2.5-fold higher, 47.2 nM
- GAUUACAUGAGGAUCACCCAUGUAACUGAAGGAGCGGUGAUAAAGCCAGGUAGGUCGCAGAACGACAUGUGGUUCAUCCAUGUAA [#16 Exclusion - Arginine A] — 2.3-fold higher, 43.9 nM
- AGACAUGAGGAUCACCCAUGUAGCACGGAUACCAGAUCCAGAUUUAUCCCUUGGCAGCUGUGGUACAGCGUUGCAACGCUCCUAG [Exclusion - Theophylline A (Freestyle 16)] — within 1.5-fold, 23.2 nM
- GAUAUAACAAAAGUUGUAUCAGUGGGUGAACGAGGACCGGUACGGCCGCCACUCGGACAUGAGGAUCACCCAUGUCCAUGUGAAA [AstrosExyTryA#18] — within 1.5-fold, 23.1 nM
- UGUAUGUGAUUUGAUACCAGACCAGCUGGUGUUAUAUGAGGAUCACCCAUAUAGGUUUGGGUCCCUUGGCAGCAAAUCGCAUACU [SS Theo B #24 Ms14] — 2-fold higher, 38.8 nM
- CUCUGAGUCCGAAAGGACUCAGAGGCGGAUACCAGCGAGGUCCAUCGCCCUUGGCAGCCGAACAUGAGGAUCACCCAUGUCGGUA [#1 Same State - Theophylline A Attempt #28 (HarryS)] — 1.6-fold lower, 12.1 nM
- GCCUAGCAUCGAAGGAGCGGGCAUUACGCGCGAAAGCGCGAUACUUGAGGAACACCCAAGUCCCAGGUAGGUCGCGAUGCUAGGC [SSAB Alternative Aptamer #3 NP+V+V2] — 6.7-fold higher, 127 nM
- UGUAUGUGAUUUGAUACCAGACCAGCUGGUGGUGCAUGAGGAACACCCAUGCAGGUUUGGGUCCCUUGGCAGCAAAUCGCAUACU [SS Theo B #24 Ms19] — 7.9-fold higher, 150 nM
